Numbering of substitutions follows the chain as printed. Numbers in names are those of the source. Where two headings read alike, the source gives them in different places.
B1: GlnBP-Acr: S179C variant of E. coli glutamine-binding protein labeled with acrylodan at cysteine 179 (protein, UniProt P0AEQ3 23-248, looked up, variant S179C)
Glutamine-binding periplasmic …: ADKKLVVATDTAFVPFEFKQGDKYVGFDVDLWAAIAKELKLDYELKPMDFSGIIPALQTKNVDLALAGITITDERKKAIDFSDGYYKSGLLVMVKANNNDVKSVKDLDGKVVAVKSGTGSVDYAKANIKTKDLRQFPNIDNAYMELGTNRADAVLHDTPNILYFIKTAGNGQFKAVGDCLEAQQYGIAFPKGSDELRDKVNGALKTLRENGTYNEIYKKWFGTEPK
modifications: acrylodan label at C179
B2: Ru-GlnBP-Acr: S179C GlnBP labeled at the cysteine with acrylodan and at the N-terminal with ruthenium bis-(2,2′-bipyridyl)-1,10-phenanthroline-9-isothiocyanate (protein, UniProt P0AEQ3 23-248, looked up, variant S179C)
Glutamine-binding periplasmic …: B1 Glutamine-binding periplasmic …
modifications: acrylodan; N-terminal ruthenium complex label
notes: S179C GlnBP labeled at the cysteine with acrylodan and at the N-terminal with ruthenium bis-(2,2′-bipyridyl)-1,10-phenanthroline-9-isothiocyanate
B3: wild type: wild type glutamine-binding protein, literature dissociation constant (protein, UniProt P0AEQ3 23-248, looked up)
Glutamine-binding periplasmic …: B1 Glutamine-binding periplasmic … with C179S

Experiments:
[1] = Glutamine measurement in lymphoblast cell culture, GlnBP sensor versus YSI; conditions: cell culture medium
Description: The cells used in the cell culture came from two different cell lines, GM010178 and GM14649, both lymphoblasts from […]. These cell lines were obtained commercially from Coriell Cell Repositories, and have been grown in a solution of 15% Fetal Bovine Serum in RPMI Medium 1640 with GlutaMAX™ (Gibco™, Grand Island, N.Y.). For the 100 mL cell culture, 50 mL of fresh medium was mixed with 50 mL of inoculum in a 250 mL polystyrene flask, and then incubated in a CO2 incubator (Precision Scientific, Chicago, Ill.) until the color of the medium turned from red to yellow. 1 mL of sample was taken from the culture every 2 h for analysis. […] The glutamine concentration was then measured with a YSI 2700 Chemistry Analyzer and concurrently with the glutamine biosensor by diluting a small volume of sample 1,000 times. […] One microliter of sample was taken each time and the glutamine concentration was measured with the present biosensor thereafter.
As in the determination of glucose, analysis of glutamine by the GlnBP sensor was compared to the YSI Chemistry Analyzer. […] The hydrogen peroxide that is released is detected at the platinum electrode. Since glutamate oxidase can also detect the glutamate that is already present in the media, the reading of the glutamine sensor is actually the sum of glutamine and glutamate in the media. […]

[2] = Fluorescence binding isotherm of labeled S179C GlnBP; conditions: fit to binding isotherm, read-out: binding constant for glutamine
Description: The emission spectra were recorded on a Varian Cary Eclipse fluorescence spectrophotometer (Varian Instruments, Walnut Creek, Calif.). All samples were measured in quartz cuvettes (Starna Cells, Inc., Atascadero, Calif.).
The apparent binding constants were calculated by fitting the experimental results to the binding isotherm (DATTELBAUM et al., Anal. Biochem., 291:89-95 (2001), which is incorporated by reference herein). The binding constants for the single-labeled and doubled-labeled GlnBP were calculated to be 0.23±0.01 μM and 0.28±0.03 μM, respectively. Both were in agreement with the reported value of 100-300 nM for the wild type (SOHANPAL et al., Sensors Actuators B, 11:547-552 (1993), which is incorporated by reference herein). While not wishing to be bound by theory, the reason for this agreement is believed to be that the position of the fluorophore is far from the binding site, consequently, the binding affinity is not greatly affected. The binding constant of GBP for glucose was calculated to be 0.78±0.07 μM, which also agrees well with the reported value of 0.8 μM (HELLINGA et al., Trends Biotechnol., 16:183-189 (1998), which is incorporated by reference herein).

[3] = Reported (literature) binding of glutamine to GlnBP; conditions: yielded by the reported ka and kd; read-out: dissociation constant
Description: (§1) This figure seeks to illustrate two things. First, the fluorescence intensity of acrylodan (λmax=515 nm) decreased with increasing concentration of glutamine. Concurrently, the luminescence intensity of Ru remained constant at λmax=610 nm. Second, the standard solutions of glutamine (0.1 to 6.4 mM) were prepared in glutamine-free Dulbecco's modified Eagle media (DMEM), a commonly used media for tissue culture. The resulting solutions were then diluted 1000× with PBS and used in the assay. The submicromolar sensitivity of the protein for glutamine remained virtually unchanged from that observed with the acrylodan label alone, as shown in DATTELBAUM et al., Anal. Biochem., 291:89-95 (2001), which is incorporated by reference herein. […]
The apparent binding constants were calculated by fitting the experimental results to the binding isotherm (DATTELBAUM et al., Anal. Biochem., 291:89-95 (2001), which is incorporated by reference herein). The binding constants for the single-labeled and doubled-labeled GlnBP were calculated to be 0.23±0.01 μM and 0.28±0.03 μM, respectively. […] The binding constant of GBP for glucose was calculated to be 0.78±0.07 μM, which also agrees well with the reported value of 0.8 μM (HELLINGA et al., Trends Biotechnol., 16:183-189 (1998), which is incorporated by reference herein). […]

[4] = cited from earlier work
[5] = Stability and reproducibility of labeled binding proteins by binding assays; type: physicochemical; conditions: 5 months after preparation
Description: The stability of the binding proteins was determined by binding assays. The labeled binding proteins can be stored in phosphate buffer at 4° C. for at least 5 months. […] While not wishing to be bound by theory, factors that could have caused this change include fluorophore and protein. In any case, the recalibration of the biosensor during its use in fermentation or cell culture is unnecessary because fermentation or cell culture usually lasts from only several hours to a few days.

[6] = Steady-state emission intensity ratio (I515/I610) of Ru-GlnBP-Acr versus glutamine; type: binding
Description: Steady-state emission spectra were recorded on a Varian Cary Eclipse spectrofluorimeter (Varin Instruments, Walnut Creek, Calif.). Time-resolved luminescence decays were measured on a frequency domain fluorimeter (ISS-Koala, Champaign, Ill.) with the following modifications. Blue LED LNG992CFBW (Panasonic, Secaucus, N.J.) driven by a current source was used as the excitation source. The modulation voltage was applied through bias T. The standard radiofrequency amplifier for the photomultiplier tubes was replaced with a ZHL-6A 1-circuits, Brooklyn, N.Y.) to enhance the low-frequency performance. The excitation light was filtered by 500-, 550-, and 650 FL07 short-wave pass filters (Andover, Salem, N.H.). The emission light was filtered by a 500 FH90 long-wave pass filter (Andover). Luminescence decay data were analyzed by nonlinear least-squares methods.
as §1, with “assay.” for “assay. The submicromolar sensitivity of the protein for glutamine remained virtually unchanged from that observed with the acrylodan label alone, as shown in DATTELBAUM et al., Anal. Biochem., 291:89-95 (2001), which is incorporated by reference herein.”

| Molecule | selectivity: response to glutamine versus glutamate [1] | Kd ([2]; listed as single-labeled GlnBP) [nM] | Kd [2] [nM] | Kd [3] [nM] | ka for the binding ([4]; reported, WEINER et al.) [M⁻¹ s⁻¹] | kd for the dissociation ([4]; reported, WEINER et al.) [s⁻¹] | change of calibration curve after storage [5] | interference of other DMEM components with glutamine binding ([6]; DMEM diluted 1000× with PBS) | Kd ([6]; from I515/I610 ratio, glutamine standards in DMEM diluted 1000× with PBS, 2.0 μM protein, read-out: apparent binding constant K′d for a single binding site) [nM] | Kd ([4]; literature value, read-out: reported dissociation constant for the wild type) [nM] |
| --- | --- | --- | --- | --- | --- | --- | --- | --- | --- | --- |
| B1 | responsive to glutamine but not to glutamate | 230 ± 10 | 200 | 163 | 9.8e+07 | 16 | underwent some changes in 5 months after preparation, but was still responsive to glutamine | – | – | – |
| B2 | – | – | 280 ± 30 | – | – | – | – | did not interfere with the binding of glutamine | 720 ± 100 | – |
| B3 | – | – | – | – | – | – | – | – | – | 100 to 300 |

Reference: US7718353B2, “Proteins, sensors, and methods of characterizing analytes using the same” (University of Maryland Baltimore County, priority 2003, dated 2010)
